Experimental data published in patent US20210292392A1 (TSB THERAPEUTICS BEIJING, published 2021).
Where a chain is given by its changes, count along the chain named. Names may count otherwise.

B1: P5A-3C8 (antibody, human IgG1, kappa, V domains shown)
VH: EVQLVESGGGLIQPGGSLRLSCAASGFTVSSNYMSWVRQAPGKGLEWVSFIYSGGSTYYADSVKGRFTISRDNSKNTLYLQMNSLRAEDTAVYYCARDLQEHGMDVWGQGTTVTVSS
VL: DIQLTQSPSSLSASVGDRVTITCRASQGISSYLAWYQQKPGKAPKLLIYAASTLQSGVPSRFSGSGSGTDFTLTISSLQPEDFATYYCQHLNSYPPGYTFGQGTKLEIKR
B2: P5A-1C8 (antibody, human IgG1, kappa, V domains shown)
VH: QVQLVQSGAEVKKPGASVKVSCKASGYTFTSYYMHWVRQAPGQGLEWMGIINPSGGSTSYAQKFQGRVTMTRDTSTSTVYMELSSLRSEDTAVYYCARSARDYYDSSGYYYRAEYFQHWGQGTLVTVSS
VL: DIQMTQSPSSLSASVGDRVTITCQASQDISNYLNWYQQKPGKAPKLLIYDASNLETGVPSRFSGSGSGTDFTFTISSLQPEDIATYYCQQYDNLPSITFGQGTRLEIKR
B3: P5A-1D2 (antibody, human IgG1, lambda, V domains shown)
VH: EVQLVESGGGLIQPGGSLRLSCAASGFIVSSNYMSWVRQAPGKGLEWVSIIYSGGSTYYADSVKGRFTISRDNSNNTLYLQMNSLRAEDTAVYYCARALQVGATSDYFDYWGQGTLVTVSS
VL: QSVLTQPPSVSGAPGQRVTISCTGSSSNIGAGYDVHWYQQLPGTAPKLLIYGNSNRPSGVPDRFSGSKSGTSASLAITGLQAEDETDYYCQSCDSSLSVVVFGGGTKLTVLG
B4: P5A-2G7 (antibody, human IgG1, lambda, V domains shown)
VH: QVQLQESGPGLVKPSETLSLTCTVSGDSVSSGSYYWSWIRQPPGKGLEWIGYIYYSGSTNYNPSLKSRVTISVDTSKNQFSLKLSSVTAADTAVYYCARERCYYGSGRAPRCVWFDPWGQGTLVTVSS
VL: QSALTQPASVSGSPGQSITISCTGTSSDVGGYNYVSWYQQHPGKAPKLMIYDVSNRPSGVSNRFSGSKSGNTASLTISGLQAEDEADYYCSSYTSSSTLVVFGGGTKLTVLG
B5: P5A-2G9 (antibody, human IgG1, lambda, V domains shown)
VH: QVQLVESGGGVVQPGRSLRLSCAASGFTFSSYGMHWVRQAPGKGLEWVAVIWYDGSNKYYADSVKGRFTISRDNSKNTLYLQMNSLRAEDTAVYYCARWFHTGGYFDYWGQGTLVTVSS
VL: QPVLTQPPSSSASPGESARLTCTLPSDINVSSYNIYWYQQKPGSPPRYLLYYYSDSDKGQGSGVPSRFSGSKDASANTGILLISGLQSEDEADYYCMIWPSNALYVFGTGTKVTVLG
B6: P5A-1D2 (antibody, human IgG1, lambda, V domains shown)
VH: B3 VH
VL: B3 VL
B7: P5A-2G7 (antibody, human IgG1, lambda, V domains shown)
VH: B4 VH
VL: B4 VL
B8: P5A-2G9 (antibody, human IgG1, lambda, V domains shown)
VH: B5 VH
VL: B5 VL
B9: P22A-1D1 (antibody, human IgG1, kappa, V domains shown)
VH: B1 VH with F50V, L99R, Q100D, E101Y, H102Y
VL: DIQLTQSPSFLSASVGDRVTITCRASQGISSYLAWYQQKPGKAPKLLIYAASTLQSGVPSRFSGSGSGTEFTLTISSLQPEDFATYYCLHLNSYRTFGLGTKVEIKR
B10: P5A-1D1 (antibody, V domains shown)
VH: B1 VH with F27L, F50V, Q100Y, E101Y, H102Y, S117T
VL: B9 VL with E70D, L89Q, H90Q, R95P, L99Q, K102R, V103L
B11: P5A-3A1 (antibody, V domains shown)
VH: B1 VH with F50V, L99Y, Q100G, E101D, H102F, G103Y, M104F, V106Y, T112L
VL: not shown
B12: P5A-1B6 (antibody, human IgG1, kappa, V domains shown)
VH: QVQLVESGGGVVQPGRSLRLSCAASGFTFSSYAMHWVRQAPGKGLEWVAVISYDGSNKYYADSVKGRFTISRDNSKNTLYLQMNSLRAEDTAVYYCARDGQAITMVQGVIGPPFDYWGQGTLVTVSS
VL: not shown
B13: P4A-1H6 (antibody, human IgG1, kappa, V domains shown)
VH: QVQLVESGGGVVQPGRSLRLSCAASGFTFSSYGMHWVRQSPGKGLEWVAVISDDGSNQYYADSVKGRFTISRDNSKNTLYLQMNSLRVEDTAVYYCAKRGGYCSTTSCLLRWVYFDFWGQGTLATVSS
VL: DIQMTQSPSSLSASVGDRVTITCRASQSISSYLHWYQQKPGKAPNLLIYAASSLQSGVPSRFSGSGSGTDFTLTISSLQPEDFATYYCQQSYNTPTFGPGTKVDIKR
B14: P5A-1B8 (antibody, human IgG1, kappa, V domains shown)
VH: EVQLVESGGGLIQPGGSLRLSCAASGFTVSSNYMSWVRQAPGKGLEWVSVIYPGGSTFYADSVKGRFTISRDNSKNTLYLQMNSLRAEDTAVYYCARETLAFDYWGQGTLVTVSS
VL: DIQLTQSPSFLSASVGDRVTITCRASQGISSYLAWYQQKPGKAPKLLIYAASTLQSGVPSRFSGSGSGTEFTLTISSLQPEDFATYYCQQLNSYPPAFGGGTKVEIKR
B15: P5A-1D10 (antibody, human IgG1, lambda, V domains shown)
VH: QVQLVESGGGLVKPGGSLRLSCAASQFTFSDYSMTWIRQAPGKGLEWVSYISQSGSTIYYADSVKGRFTISRDNAKNSLYLQMNSLRAEDTAVYYCARGVSPSYVWGSYRSLYHFDYWGQGTLVTVSS
VL: B4 VL with G66A, Y93F, S97T, L99V
B16: P5A-3A6 (antibody, human IgG1, lambda, V domains shown)
VH: EVQLVESGGGLVQPGRSLRLSCAASGFTFDDYAMHWVRQAPGKGLEWVSGISWNSGTIGYADSVKGRFIISRDNAKNSLYLQMNSLRAEDTALYYCAGGGTMVRGVIAGGGTHPVDDYYGMDVWGQGTTVTVSS
VL: QSALTQPASVSGSPGQSITISCTGTSSDVGGYNYVSWYQQHPGKAPKLMIYDVSNRPSGVSNRFSGSKSGNTASLTISGLQAEDEADYYCSSYTSSSTVVFGGGTKLTVLG
B17: P5A-3C12 (antibody, human IgG1, kappa, V domains shown)
VH: QITLKESGPTLVKPTQTLTLTCTFSGFSLSTSGVGVGWIRQPPGKALEWLALIYWDDDKRYSPSLKSRLTITKDTSKNQVVLTMTNMDPVDTATYYCAHSLFLTVGYSSSWSPFDYWGQGTLVTVSS
VL: not shown
B18: P2C-1C10 (antibody, V domains shown)
VH: QVQLVQSGAEVKKPGSSVKVSCKASGGTFSSYAIIWVRQAPGQGLEWMGGIIPIFGTANYAQKFQGRVTITADESTSTAYMELSSLRSEDTAVYYCARVVTGYYFDYWGQGTLVTVSS
VL: EIVLTQSPATLSLSPGERATLSCRASQSVSSYLAWYQQKPGQAPRLLIYDASNRATGIPARFSGSGSGTDFTLTISSLEPEDFAVYYCQQRSNWPSFGQGTKLEIKR
B19: P2C-1D5 (antibody, V domains shown)
VH: not shown
VL: SYVLTQPPSVSVAPGKTARITCGGNNIGSKSVHWYQQKPGQAPVLVIYYDSDRPSGIPERFSGSNSGNTATLTISRVEAGDEADYYCQVWDSSSDHHVFGTGTKVTVLG
B20: P2C-1C8 (antibody, V domains shown)
VH: QVQLVESGGGVVQPGRSLRLSCAASGFTFRSYGMHWVRQAPGKGLEWVAVIWYDGSNKYYADSVKGRFTISRDNSKNTLYLQMNSLRAEDTAVYYCARDIEIVVVNIDYWGQGTLVTVSS
VL: not shown

target: T1, full length spike (S) protein of SARS-CoV-2 (SARS-CoV-2, UniProt P0DTC2 14-1273); assay: cell-based or functional assay

| Binder | IC50, pseudovirus neutralization [µg/mL] |
| --- | --- |
| B1 | 0.024 |
| B2 | 0.434 |
| B3 | 0.035 |
| B4 | 0.016 |

target: full length S protein of SARS-CoV-2 (on pseudovirus) (SARS-CoV-2, UniProt P0DTC2 14-1273); assay: cell-based or functional assay

| Binder | Pseudovirus IC50 [µg/mL] | Pseudovirus IC80 [µg/mL] |
| --- | --- | --- |
| B5 | 0.0158 | 0.147 |
| B6 | 0.0186 | 0.102 |
| B7 | 0.0044 | 0.0287 |

target: T1, full length spike (S) protein of …; assay: cell-based or functional assay; remark: another data set of the same source

| Binder | IC50, Pesudovirus neutralization [µg/mL] | IC80, Pesudovirus neutralization [µg/mL] | IC90, Pesudovirus neutralization [µg/mL] |
| --- | --- | --- | --- |
| B8 | 0.0158 | 0.147 | 0.498 |
| B9 | – | – | 0.399 |
| B10 | – | – | 0.232 |
| B11 | – | – | 7.2 |
| B12 | – | – | 4.2 |
| B13 | – | – | 2.21 |
| B14 | – | 0.0509 | 0.137 |
| B15 | 5.72 | 28.9 | 43.8 |
| B16 | 0.234 | 1.27 | 2.77 |
| B17 | – | – | 0.955 |

target: T1, full length spike (S) protein of …; assay: cell-based or functional assay; remark: another data set of the same source

| Binder | IC50, pseudovirus neutralization [µg/mL] | Neutralizing activity (%) Mean at 0.0228624 µg/ml [%] | Neutralizing activity (%) Mean at 0.0685871 µg/ml [%] | Neutralizing activity (%) Mean at 0.2057613 µg/ml [%] | Neutralizing activity (%) Mean at 0.6172839 µg/ml [%] | Neutralizing activity (%) Mean at 1.851852 µg/ml [%] | Neutralizing activity (%) Mean at 5.555555 µg/ml [%] | Neutralizing activity (%) Mean at 16.66667 µg/ml [%] | Neutralizing activity (%) Mean at 50 µg/ml [%] |
| --- | --- | --- | --- | --- | --- | --- | --- | --- | --- |
| B18 | 2.62 | -2.34 | 7.78 | 13.4 | 5.92 | 38.5 | 88.9 | 99.9 | 100 |
| B19 | 10.7 | 4.24 | 5.65 | 8.66 | 12.4 | 16.1 | 33.6 | 64.9 | 90.2 |
| B20 | – | -7.15 | 2.8 | 4.92 | 10.1 | 8.39 | 23.3 | 34.7 | 59.2 |
